Test results published in US20120090043A1, “TARGETS FOR RETROVIRUS ASSOCIATED DISEASES” (priority 2009, published 2012).

B1: PIAS2: human host interactor protein, Gene ID 9063, expressed from transfected ORF vector (protein)
chain: MADFEELRNMVSSFRVSELQVLLGFAGRNKSGRKHDLLMRALHLLKSGCSPAVQIKIRELYRRRYPRTLEGLSDLSTIKSSVFSLDGGSSPVEPDLAVAGIHSLPSTSVTPHSPSSPVGSVLLQDTKPTFEMQQPSPPIPPVHPDVQLKNLPFYDVLDVLIKPTSLVQSSIQRFQEKFFIFALTPQQVREICISRDFLPGGRRDYTVQVQLRLCLAETSCPQEDNYPNSLCIKVNGKLFPLPGYAPPPKNGIEQKRPGRPLNITSLVRLSSAVPNQISISWASEIGKNYSMSVYLVRQLTSAMLLQRLKMKGIRNPDHSRALIKEKLTADPDSEIATTSLRVSLMCPLGKMRLTIPCRAVTCTHLQCFDAALYLQMNEKKPTWICPVCDKKAAYESLILDGLFMEILNDCSDVDEIKFQEDGSWCPMRPKKEAMKVSSQPCTKIESSSVLSKPCSVTVASEASKKKVDVIDLTIESSSDEEEDPPAKRKCIFMSETQSSPTKGVLMYQPSSVRVPSVTSVDPAAIPPSLTDYSVPFHHTPISSMSSDLPGLDFLSLIPVDPQYCPPMFLDSLTSPLTASSTSVTTTSSHESSTHVSSSSSRSETGVITSSGSNIPDIISLD
B2: SF3A3: human host interactor protein, Gene ID 10946, expressed from transfected ORF vector (protein)
chain: METILEQQRRYHEEKERLMDVMAKEMLTKKSTLRDQINSDHRTRAMQDRYMEVSGNLRDLYDDKDGLRKEELNAISGPNEFAEFYNRLKQIKEFHRKHPNEICVPMSVEFEELLKARENPSEEAQNLVEFTDEEGYGRYLDLHDCYLKYINLKASEKLDYITYLSIFDQLFDIPKERKNAEYKRYLEMLLEYLQDYTDRVKPLQDQNELFGKIQAEFEKKWENGTFPGWPKETSSALTHAGAHLDLSAFSSWEELASLGLDRLKSALLALGLKCGGTLEERAQRLFSTKGKSLESLDTSLFAKNPKSKGTKRDTERNKDIAFLEAQIYEYVEILGEQRHLTHENVQRKQARTGEEREEEEEEQISESESEDEENEIIYNPKNLPLGWDGKPIPYWLYKLHGLNINYNCEICGNYTYRGPKAFQRHFAEWRHAHGMRCLGIPNTAHFANVTQIEDAVSLWAKLKLQKASERWQPDTEEEYEDSSGNVVNKKTYEDLKRQGLL
B3: SP100: human host interactor protein, Gene ID 6672, expressed from transfected ORF vector (protein)
chain: MAGGGGDLSTRRLNECISPVANEMNHLPAHSHDLQRMFTEDQGVDDRLLYDIVFKHFKRNKVEISNAIKKTFPFLEGLRDRDLITNKMFEDSQDSCRNLVPVQRVVYNVLSELEKTFNLPVLEALFSDVNMQEYPDLIHIYKGFENVIHDKLPLQESEEEEREERSGLQLSLEQGTGENSFRSLTWPPSGSPSHAGTTPPENGLSEHPCETEQINAKRKDTTSDKDDSLGSQQTNEQCAQKAEPTESCEQIAVQVNNGDAGREMPCPLPCDEESPEAELHNHGIQINSCSVRLVDIKKEKPFSNSKVECQAQARTHHNQASDIIVISSEDSEGSTDVDEPLEVFISAPRSEPVINNDNPLESNDEKEGQEATCSRPQIVPEPMDFRKLSTFRESFKKRVIGQDHDFSESSEEEAPAEASSGALRSKHGEKAPMTSRSTSTWRIPSRKRRFSSSDFSDLSNGEELQETCSSSLRRGSGSQPQEPENKKCSCVMCFPKGVPRSQEARTESSQASDMMDTMDVENNSTLEKHSGKRRKKRRHRSKVNGLQRGRKKDRPRKHLTLNNKVQKKRWQQRGRKANTRPLKRRRKRGPRIPKDENINFKQSELPVTCGEVKGTLYKERFKQGTSKKCIQSEDKKWFTPREFEIEGDRGASKNWKLSIRCGGYTLKVLMENKFLPEPPSTRKKRILESHNNTLVDPCEEHKKKNPDASVKFSEFLKKCSETWKTIFAKEKGKFEDMAKADKAHYEREMKTYIPPKGEKKKKFKDPNAPKRPPLAFFLFCSEYRPKIKGEHPGLSIDDVVKKLAGMWNNTAAADKQFYEKKAAKLKEKYKKDIAAYRAKGKPNSAKKRVVKAEKSKKKKEEEEDEEDEQEEENEEDDDK

Test system: HIV-1 LTR promoter transactivation by HIV-1 Tat
Test: Transactivation assay, HIV-1 LTR luciferase reporter with HIV-1 Tat
Assay type: cell-based
Details: HEK293 cells co-transfected with pHIV1LTR-Luc, HIV-1 Tat and the human ORF; relative luciferase activity 24 h post-transfection; positive if >=2 or <=0.5 and p<0.05
Excerpt: The plasmids pHIV1LTR-Luc or pHTLV1LTR-Luc containing a luciferase reporter gene under the control of the HIV-1 or HTLV-1 LTR promoters and plasmids expressing either HIV-1 Tat or HTLV-1 Tax and each human ORF found to interact with viral proteins were transfected into 10^4 HEK293 cells using the calcium phosphate method. Twenty-four hours post-transfection, cells were washed three times with PBS, lysed and luciferase activities determined from two independent transfection experiments in triplicate. We computed a paired t-test to assess the difference of the means between samples with and without the human interactor. For a trial to be considered positive, the relative luciferase activities has to be >=2 or <=0.5, and the p-value of the t-test<0.05.
Many HIV/HTLV-human interactions in our data set (130/212) involved the retroviral transactivator proteins HTLV-1 Tax (57/212), HTLV-2 Tax2 (49/212), HIV-1 Tat (10/212) and HIV-2 Tat (14/212). Human proteins interacting with viral transactivators likely influence Tat or Tax transactivation. Expression vectors encoding human ORFs and HIV-1 Tat or HTLV-1 Tax proteins were tested in a transactivation reporter assay against reporter plasmids harboring HIV-1 or HTLV-1 viral promoter sequences cloned upstream of the luciferase reporter gene. In the controls Tat or Tax respectively activated HIV or HTLV LTR-directed gene expression. Co-transfection of interacting human ORFs identified 71 proteins (54% of the 131 human targets in our data set) that regulated HIV (26.7% of targets), HTLV (37.4% of targets) or both (9.9% of targets) LTR promoter activation by Tat or Tax (see Tables 7 and 8; Table 13 below containing quantitative data on the regulation of transactivation). Wherever not expressly specified, constructs used herein were generally made by sub-cloning entry clones from the ORFeome V3.1 into suitable destination vectors.

| Molecule | HIV_LTR transactiv. [fold change] |
| --- | --- |
| B1 | 0.42 |
| B2 | 0.49 |
| B3 | 3.69 |
